Experimental data published in patent US20130039920A1 (SHANGHAI CANCER INSTITUTE, published 2013).
Several values for one entry are separate records, joined by “and”; a condition that tells them apart may be missing. Identical values can stand only once.

Experiments:
[1] = molecular target: T1, recombinant EGFRvIII extracellular region protein (UniProt P00533 25-645); assay: non-competitive ELISA on coated rEGFRvIIIex; derived from the affinity constant
T1 construct: extracellular domain; also called rEGFRvIIIex; rEGFRvIII
Method: (§1) After the coated buffer was removed, the plates were washed with PBS one time followed by adding with 350 μl of PBS containing 5% of skimmed milk powder and incubating overnight. Then the plates were washed with PBS twice. […] The plates were incubated with antibodies at 37° C. for 1 hour and washed thrice with PBS. Then the plates were added with 100 μL of HRP-labeled goat anti-mouse secondary antibodies, incubated at 37° C. for 1 hour and washed 5 times with PBS followed by incubation with ABTS substrate for 15 min. The absorbance value was determined at 405 nm with a microplate reader. The binding curve was drawn according to the absorbance values to obtain the antibody concentration at half-maximal OD value (OD50%).
(§2) The concentrations are substituted into the formula K=(n−1)/2 (nAb′−Ab) to calculate the affinity constant, wherein, Ab′ and Ab represent the OD50% antibody concentration (mol/L) when the concentrations of antigen is Ag′ and Ag, n=Ag/Ag′. Six K values were obtained by paired comparison and averaged to obtain the final value.

[2] = molecular target: T1, recombinant EGFRvIII extracellular …; assay: non-competitive ELISA, rEGFRvIIIex coated at 2.5 mg/L; antibody concentration at half-maximal OD
Method: as §1

[3] = molecular target: T1, recombinant EGFRvIII extracellular …; assay: non-competitive ELISA, rEGFRvIIIex coated at 5.0 mg/L; antibody concentration at half-maximal OD
Method: as §1

[4] = molecular target: T1, recombinant EGFRvIII extracellular …; assay: non-competitive ELISA, rEGFRvIIIex coated at 1.25 mg/L; antibody concentration at half-maximal OD
Method: as §1

[5] = molecular target: T1, recombinant EGFRvIII extracellular …; assay: non-competitive ELISA, rEGFRvIIIex coated at 0.625 mg/L; antibody concentration at half-maximal OD
Method: as §1

[6] = molecular target: T1, recombinant EGFRvIII extracellular …; assay: non-competitive ELISA on coated rEGFRvIIIex; average of six K values from paired coating concentrations
Method: as §1, §2

B1: monoclonal antibody 12H23 (antibody, V domains shown)
VH: DVQLQESGPGLVKPSQSLSLTCTVTAYSVTSDYAWNWIRQFPGNKLEWMGYISYSGTTRYNPSLKSRISITRDTSKNQFFLQLNSMTAEDTATYYCSRQGRGFPYWGQGTLVTVSA
VL: DILMTQSPSSMSVSLGDTVSITCHASQDINSNIGWLQQKPGKSFKGLIYHGTNLEDGVPSRFSGSGSGADYSLTISSLESEDFADYYCVQYAQFPWTFGGGTKLEIKR
notes: also called murine monoclonal antibody 12H23; clone 12H23
Kd [1]: 0.026 nM
EC50 [2]: 0.0025 µg/mL and 0.017 nM
EC50 [3]: 0.003 µg/mL and 0.02 nM
EC50 [4]: 0.0023 µg/mL and 0.015 nM
EC50 [5]: 2 ng/mL
Ka [6]: 3.8e+10 M⁻¹
